Experimental data published in PMC12708652 (Nature Communications, 2025).

Target: P116 (residues 30–957), recombinant ectodomain of Mycoplasma pneumoniae P116 (Mycoplasma pneumoniae, UniProt P75556)
Assay: cryo-EM structure

Chain of P116 (residues 30–957), recombinant ectodomain of Mycoplasma pneumoniae P116 (P75556 30-957): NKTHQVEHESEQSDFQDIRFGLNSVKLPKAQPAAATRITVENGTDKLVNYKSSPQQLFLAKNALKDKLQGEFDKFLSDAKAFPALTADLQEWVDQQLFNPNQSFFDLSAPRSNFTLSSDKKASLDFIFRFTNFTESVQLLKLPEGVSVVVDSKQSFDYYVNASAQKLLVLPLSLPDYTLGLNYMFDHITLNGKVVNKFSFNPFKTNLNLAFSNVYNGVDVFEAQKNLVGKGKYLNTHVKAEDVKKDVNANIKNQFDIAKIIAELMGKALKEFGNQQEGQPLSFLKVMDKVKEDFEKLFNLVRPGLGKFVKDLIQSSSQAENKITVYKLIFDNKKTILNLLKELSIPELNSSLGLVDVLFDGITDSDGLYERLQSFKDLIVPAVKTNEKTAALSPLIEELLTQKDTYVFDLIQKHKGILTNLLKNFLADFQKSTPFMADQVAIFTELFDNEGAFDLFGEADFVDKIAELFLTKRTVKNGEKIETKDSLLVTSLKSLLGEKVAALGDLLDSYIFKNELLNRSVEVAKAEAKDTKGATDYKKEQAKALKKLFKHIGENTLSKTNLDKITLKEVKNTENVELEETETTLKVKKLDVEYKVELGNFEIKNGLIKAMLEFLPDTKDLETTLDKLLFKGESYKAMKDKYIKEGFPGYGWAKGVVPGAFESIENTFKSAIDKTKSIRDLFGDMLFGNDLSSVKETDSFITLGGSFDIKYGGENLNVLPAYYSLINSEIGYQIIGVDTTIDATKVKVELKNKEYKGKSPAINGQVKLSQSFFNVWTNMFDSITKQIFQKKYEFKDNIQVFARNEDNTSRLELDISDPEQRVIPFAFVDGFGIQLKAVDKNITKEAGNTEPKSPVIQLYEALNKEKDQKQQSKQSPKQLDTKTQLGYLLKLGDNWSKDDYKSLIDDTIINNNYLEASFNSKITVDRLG

B1: monoclonal antibody (mAb) 3G9 against P116 (antibody, V domains shown)
VH: QVQLQQPGAELVKPGASVKLSCKASGYSFITYWMRWVRQRPGQGLEWIGQINPSNGHTNYDEKFKDRATLTVDKSSTTAYLQLSSLTSDDSAVYFCARSWEAMDYWGQGTSVTVSS
VL: DIVLTQSPATLSVTPGDSVSLSCRASQGISNNLHWYQQKSHESPRLLIKYASQSFSGIPSRFSGSGSGTVFTLTINSVETEDFGVYFCQQSYSWPIFTFGSGTNLQIK
- binding result: binds
